Experimental findings from the nanobody polyreactivity screen of Harvey et al. (2022) are described below.

The data set can be described thus: yeast display, Sf9 membrane polyspecificity reagent, FACS + sequencing; frameworks hold sequencing errors. The essentials:
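In a synthetic yeast display library (Saccharomyces cerevisiae BJ5465), nanobody expression was induced with galactose for 36–48 hours. FACS gates were set low and high (top ~1%) using anti-HA fluorescence for expression and streptavidin fluorescence for binding of the Sf9 membrane reagent. Each polyreactivity label is drawn from the gate of origin.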
Turning to “QVQLVESGGGLVQAGGSLRLSCAASGSTFSANTMGWYRQAPGKERELVAGITNTGDTYYADSVKGRFTISRDNAKNTVYFQMNSLKPEDTAVYYCAADSWRRTDGAYWSTVYYWGQGTQVTVSS”, the “polyreactivity (PSR sort gate)” value is reported as “low polyreactivity”.

Regarding “QVQLVESGGGLVQAGGSLRLSSAASGSIFGYAMGWYRQAPGKERELVARIDWSGGRTYYADSVKGRFTISRDNAKNTVYLQMYSLKPDDTAVYYCYARRYLYRGNIVDYWGQGTQVTVSS”, the “polyreactivity (PSR sort gate)” value is on record as “high polyreactivity”.

For “QVQLVESGGGLVQAGGSLRLSCAASGRTFRWYAMGWYRQAPGKERELVADISSVGSTDYADSVKGRFTISRDNAKNTVYLQMNSLKPEDTAVYYCAADFSPRRYHNRSFGYWGQGTQVTVSS”, the “polyreactivity (PSR sort gate)” value is given as “low polyreactivity”.

For the sequence “QVQLVESGGGLVQAGGRLRLSCAASGFNFRYYAMGWYRQAPGKERELVAASSRSGGGTYYADSVKGRFTISRDTAQNTVYLQMNSLTPEDTAVYYCAADPSLGRGYDYWGQGTQVTVSS”, the “polyreactivity (PSR sort gate)” value is recorded as “high polyreactivity”.

Take “QVHLVESGGGLVQAGGSLRLRCAASGYPFKRNDMGWYRHAPGKETQFVPAISKSGGSTYYADSVKGRFTISRDNAKNSVYLQRNSLKPEDTAVSYCAATRGLYRYWGRDKFDYWGQGTQVTVSS”: the “polyreactivity (PSR sort gate)” value is “low polyreactivity”.

For “QVQLVESSGGLVQAGGSLRLSCSASGRTFVWYDMGWYRQAPGKERELVAAITKRGTSTYYADSVKGRFTISRDNAKNTVYLQMNSLKPEDTAVYYCAVEYIYWFHCRSSFIYDYWGQGTQVTVSS”, the “polyreactivity (PSR sort gate)” value is reported as “low polyreactivity”.

For “QVQLVESGGGLVQAGGSLRLSCAASGRIFGWNAMGWYRQPPGKERELVAAISADGNTYYADSVKGRFTISRDNAKNTVYLQMNSLKPEDTAVYYCNAYVYSGYSIRDYWGQGTQVTVSS”, the “polyreactivity (PSR sort gate)” value is reported as “high polyreactivity”.

For “QVQLEESGGGLVQAGGSLRLSCAASGSIFTVNAMGWYRQATGKQMELVAAISQSGGSTYYADSVKGRFTISRDNAKNTVYLQMNSLKPEDTAVYYCNALLFIVHGDKSQTMDYWGQGTQVTGSS”, the “polyreactivity (PSR sort gate)” value is listed as “low polyreactivity”.

Regarding “QVQLVESGGGLVQAGGSLRLSCAASGIIFAHYAMGWYRQAPGKERELVAAISSSGATTYYADSVKGRFTISRDNAKNTVYFQMNSLKPEDTAVYYCNTETYHVRRLFDYWGQGTQVTVSS”, the “polyreactivity (PSR sort gate)” value is on record as “low polyreactivity”.

For “QVQLVESGGGLVQAGGSLRLIFAASGRTFFSYVMGWYIQAPGKERELVAAITWRGGSTYYADSVKGRFTISRDNAKNTVYLQMNSLKPEDTAVYYCAAPSHGSTSDRYYKFYYWGQGTQVTVSS”, the “polyreactivity (PSR sort gate)” value was “high polyreactivity”.

In the case of “QVQLVEPGGCLVQAGGSLRLSCAASGSIFAYNSMGSYRQAPGKERELVAAITISGGRTYYADSVKGRFTISRDNAKNTVYLNMNSLKPEDTAVYYCNADNARGRSGVRRYYWGQGTQVTVSS”, the “polyreactivity (PSR sort gate)” value is “high polyreactivity”.

With “QVQLVESGGGLVQAGGSRRLSCAASGRIFGWYAMGWYRQAPGKERELVAAISRGGTRTNYADSVKGRFTISRDNAKNTGYLKMNSLKPEDTAVYYCASESFYSQFDYWGQGSQVTVSS”, the “polyreactivity (PSR sort gate)” value is recorded as “high polyreactivity”.

As to “QVQLVESGGGLVRAGGSLRLSCAASGRIFHGNAMGWYRQAPGKERELVAAITWGGTRTYYADSVKGRFTISRDNAKNTVYLQMNSLKPEDTAVYYCAKAGTGFYNSWWEDYWGQGTQVTVSS”, the “polyreactivity (PSR sort gate)” value is “low polyreactivity”.

Regarding “QVQLQESGGGLVQAGGSQRLSCAASGYIFYFQYMGWYRQAPGKEREFVAAISDGANTNYADSVKGRFTISRDNAKNTEYLQMNSLKPEDTAVYFCAVYADENYYFIYWGQGTQVTVSS”, the “polyreactivity (PSR sort gate)” value is recorded as “low polyreactivity”.

On to “QVQLVESGGGLVQAGGSLRLSCAASGLTFVFYAMGWYRQAPGKERELVAAISWSTGRTYYADSVKGRFTISRDNAKNTVYLQMNSLKPEGTAVYYCAASYLGRKYDYWGQGTQVTVSS”, for which the “polyreactivity (PSR sort gate)” value was “high polyreactivity”.

With “QVQLVESGGGLVQAGGSLRLRCAASGRIFVHYVMVWSRQAPGKEREFVAAITIGSTYADSVKGRFTISRDNAKNTVYLQMNSLKPEDTAVYYCNARWVVNVRTQGSPPYKYDYWGQGSQVTVSS”, the “polyreactivity (PSR sort gate)” value is “low polyreactivity”.

With “QVQLVESGGGLVQAGGSLRLSCAASGFTFHDYAMGWYRPAPGKERELVAAITKTGGRTYYADSVKGRFTISRDNAKNTVYLQMNSLKPEVTAVYYCAAKSYWGQGTQVTVSS”, the “polyreactivity (PSR sort gate)” value is “high polyreactivity”.

Turning to “QVQLVESGGGLVQAGGSLRLSCAASGSTFDANAMGWYRQAPGKERELVAAISRSGGNTYYPDSVKGRFTISRDNAKNTVYLELNSLKPEDTAVYYCAADFRNAYYDRLDYWGQGTQVTVSS”, the “polyreactivity (PSR sort gate)” value was “low polyreactivity”.

Regarding “QVQLVESGGGLVQAGGSLRLSCAASGSTFKRYDLGWYRQAPGKERELFAAIRTSGGTTYYADSVKCRFTISRDYAKNNVYLQMNSLKPEDTAVYYCAASKWPRHRTRRYYYWVQGTQVTVSS”, the “polyreactivity (PSR sort gate)” value was “high polyreactivity”.

Turning to “QVQLQESVGGLVQAGGILRLSCAACGNIFPSAVMGWYRQALGKEREFVATINSGSNTYYADSVKGRFTISRDNATNTVYLQMNSLKLEDTAVYYCAAYFKLPAWHTYWGQGTQVTVSS”, the “polyreactivity (PSR sort gate)” value is reported as “low polyreactivity”.

With “QVQLVESGGGLVQAGGSLRLSCAASGSTFVYMGWYRQAPGKEREFVAAITWSGGSTYYADSVKGRFTISRDNAKNTVYLQMNSLKPEDTAVNYCNAVSVIPGWARYYSWGQGTQVSVSS”, the “polyreactivity (PSR sort gate)” value is listed as “low polyreactivity”.

In the case of “QVQLVESGGGLVQAGGSLRLSCAASAFTFGNYAMGWYRQAPGKERELVAVISRGGSTYYADSVKGRFTISRDYAKNTVYLQMNSLKPEDTAVYFCAARAFPPYGYDYWGQGTQVTVSS”, the “polyreactivity (PSR sort gate)” value is given as “high polyreactivity”.

For “QVQLVESGGGLVQAGGSLRLSCAASGRTFYPYAMGWYRQAPGKERELVARISASGGSTYYADSVKGRFTISRDNAKNTVYLQMNSLKTEDTAVYYCARESFWRTLMDYWGQGTQVTVSS”, the “polyreactivity (PSR sort gate)” value was “high polyreactivity”.

Turning to “QVQLVESGGGLVQAGGSLRLSCAASGITFVHYAMGWYIQAPGKERELVAAISEDGGSTYYADSVKGRFTISRDNAKNTVYLQMNSLKPEDTAVYYCNTYSGLWPYWRLYDYWGQGTQVTVSS”, the “polyreactivity (PSR sort gate)” value was “high polyreactivity”.

With “QVQLVESGGGLVQAGGSLRLSCAASGSIFYFNAMGWYRQAPGKERELVAAINSGGSTYYADSVKGRFTISRDNAKNTVYLQMNSLKPEDTAVYYCAAVKVDYYITMYYWGQGTQVTVSS”, the “polyreactivity (PSR sort gate)” value is “high polyreactivity”.

Regarding “QGQLVESGGGLVQAGGSLRLSCAASGRIFNRNAMGWYRQAPGKERELVAAITRGGRTNYADSVKGRFTISRDNAQNTVYLQMNSLKPEDTAVYYCAAAYYGSHGRYDYWGQGTQVTVSS”, the “polyreactivity (PSR sort gate)” value is recorded as “high polyreactivity”.

On to “QVQLVESGGGLVQAGGSIPLTCAASGRTLWGYAMGWYSQAPGKEREMVAAITSGGSTYYADSVKGRFTISRDNAKYYVYLQMNSLKPEDTAVDYCNAVTSIQTSYPSNWGMMDYWGQGSQVTVSS”, for which the “polyreactivity (PSR sort gate)” value is “low polyreactivity”.

As to “QVQLVESGGGLVQAGGSLRLSCAASGSIFYPYAMGRYRQAPGKERELVASIRSRRGTTFYADSVKGRFTISRDNAKNTVYLQMNSLKPEDTAVYYCAVDNWSSSYYWWVDKLGGSDYWGQGTQVTVSS”, the “polyreactivity (PSR sort gate)” value is on record as “low polyreactivity”.

As to “QVQLVESGGGLVQAGVSLRLSCASSGSIFPEYVMAWYRQAPGKERELVAAISWSGGSTYYADSVKGRITISRDNAKNTVYFQMNCLKQEATAVYYCNRVPSWRIDYDYWGQGTLVTVSS”, the “polyreactivity (PSR sort gate)” value is listed as “low polyreactivity”.

On to “QVQLVESGGGLVQAGGSLRLSCAASGIIFYAYDMGWYRQAPGKERELVAAITFSAVSTYYADSVKGRFTISRDNAKNTVYLQMNSLKPEDTAVYYCAAEAYKHGVWDYDYWGQGTQVTVSS”, for which the “polyreactivity (PSR sort gate)” value is “low polyreactivity”.

Take “QVQLRESGGGLVQAGGSLSLSCAASGTIFYSRYMGWYRQAPGKEREFVASNSSGGNTNYADSVKGRFTISRDNAKNTVYLQMNSLKPEVSAVYYCEVNTGLITTFPYWGQGTQVTVSS”: the “polyreactivity (PSR sort gate)” value is reported as “high polyreactivity”.

For “QVQLVESGGGLVQAGGCLRLSCAASGSTFEDYAMGWYRQATGKERALVAAINSGGSTYYADSVKGRFTFSRHNAKNTVYLQMNSQKPEDTAVYYCAARIYYWTYRYNYWGQGTQVTVSS”, the “polyreactivity (PSR sort gate)” value is “high polyreactivity”.

As for “QVQLVVSGGGLVQAGGSLRLSCAASGNTFTKYAMGWYRQAPGKERELVAGITRGGSTNYADSVKGRFTISRDNAKNTVYLQMNSLIPEDTAVYYCNARPVYGSRFYSAVRMEYWGQATQVTVSS”, the “polyreactivity (PSR sort gate)” value is “low polyreactivity”.

As for “QVQLVESGGGLVQAGGSLRLSCAASGRTFPGNSMGWYRQAPGKERELVAAISWSGTRTYYADSVKGRFTISRDNAKNTVYLQMNSLKPEDTAVYYCNVVVKGAWDYYPYDYCGQGTQVTVSS”, the “polyreactivity (PSR sort gate)” value is reported as “high polyreactivity”.

As for “QVQLVESGGGLVQAGGSLRLSCAASGRIFTGNAMGWYRQAPGKERELVAAISASGGRTYYAYSVKGRFTISRDHAKNTVYLQMNSLKPEDTAVYYCAKVGRTAYTSTYTGVSAYDYWGQGTQVTVSS”, the “polyreactivity (PSR sort gate)” value is on record as “high polyreactivity”.

Regarding “QVQLVESGGGLVQAGGSLRLSCAASGFIFSRNAMGWYRQAPGKERELVAAISSGGGTDYADSVKGRFTISRDNAKNTVYLQMNSLQPEDTAVYYCAASYFPGWKHSLDDYWGQGTQVTVSS”, the “polyreactivity (PSR sort gate)” value is recorded as “low polyreactivity”.

Turning to “QVQLVEAGGGLVQAGGSLRLSCAASGGTFTAYAMGWYRQAPGKERELVAAISASGDSTYYADSVKGRFTISRDNAKNTVYLQMNSLKPEDTAVYYCNADWYRTGRRGSDYWGQGTQVTVSS”, the “polyreactivity (PSR sort gate)” value is “low polyreactivity”.

With “QIQLVESGGGLVQAGGSLRLSCAASGFTFYANAMGWYRQAPGKERELVAAISSSGGSTYYADSVKGRFTISRDNAKNTVYLQMNSLKPEDTAVYYCNVYSRHWYRYEFDYWGQGTQVTVSS”, the “polyreactivity (PSR sort gate)” value is recorded as “high polyreactivity”.

Regarding “QVQLVESGGGLVQAGGSLRLSCAASGYIFYHYAMGWYRQAPGKERELVATISLGGGRTYYADSVKGRFTISRDNAKNTVYLQMNSLKPEDTAVYYCAAKQYGYYSDYYYWGQGTQVTVSS”, the “polyreactivity (PSR sort gate)” value was “high polyreactivity”.

On to “QVQLVESGGGLVQAGGSLRLSCAASGFTFRSYTMGWYRQAPGKERELVAAITSGGSTYYADSVKGRFTISRDNAKNTVYLQMNSLKPEDTAVYYCAVTYRWHTFIYDYWGQGTQVTVSS”, for which the “polyreactivity (PSR sort gate)” value is on record as “low polyreactivity”.

On to “QVQLVESGGGLVQAGGSLRLSCAASGRILPYYAMGWYRQAPGKERELVAAITSGGSTYYADSVKGRFTISRDNAKNTVYLQMNSLKPEDTAVYYCATDVDKSLYDYWGQGTQVTVSS”, for which the “polyreactivity (PSR sort gate)” value was “low polyreactivity”.
